Earlier results as cited in publication PMC3413252.

Columns and labels:
[1] = biological target: surface IL6 receptor (UniProt P08887)
[2] = biological target: soluble IL6 receptor (UniProt P08887)

Chain of IL6 (P05231 30-212): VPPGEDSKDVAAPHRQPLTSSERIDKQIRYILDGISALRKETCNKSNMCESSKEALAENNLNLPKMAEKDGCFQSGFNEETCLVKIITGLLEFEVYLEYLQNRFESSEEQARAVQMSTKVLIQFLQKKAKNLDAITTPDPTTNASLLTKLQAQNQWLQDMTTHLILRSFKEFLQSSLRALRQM

- Kd [1]: 0.0001 µM
- Kd [2]: 0.03 µM
Substance: IL6 (from UniProt P05231)
